Laboratory results published in doi:10.1101/2022.10.23.513379 (bioRxiv, 2022).

B1: 80 Fab (Fab, V domains shown)
VH: QVQLVQSGAEVKKPGSSVKVSCKASGGTFNRYAFSWVRQAPGQGLEWMGGIIPIFGTANYAQKFQGRVTITADESTSTAYMELSSLRSEDTAVYYCARSTRELPEVVDWYFDLWGRGTLVTVSS
VL: not shown
B2: 80 MB (mono-specific Multabody of specificity 80) (complex)
VH: B1 VH
VL: not shown
B3: 80 IgG (antibody, V domains shown)
VH: B1 VH
VL: not shown
B4: 2-7 MB (mono-specific Multabody of specificity 2-7) (complex)
VH: QITLKESGPTLVKPTQTLTLTCTFSGFSLSTSGVGVGWIRQPPGKALEWLALIYWDDDKRYSPSLKSRLTITKDTSKNQVVLTMTNMDPVDTATYYCAHHKIERIFDYWGQGTLVTVSS
VL: SALAQPASVSGSPGQSITISCTGTSSDVGAYNYVSWYQQHPGKAPKLMIYDVSKRPSGVSNRFSGSKSGNTASLTISGLQAEDEADYYCSSYTTSSTVFGGGTKLTVL
B5: 2-7 IgG (antibody, V domains shown)
VH: B4 VH
VL: B4 VL

Experiments:
[1] = target: T1, His-tagged wildtype SARS-CoV-2 RBD (BEI NR52309) (SARS-CoV-2, wildtype (Wuhan-Hu-1), UniProt P0DTC2); experiment: crystal structure
[2] = target: T1, His-tagged wildtype SARS-CoV-2 RBD (BEI …); experiment: BLI

| Binder | binding result [1] | binding result [2] |
| --- | --- | --- |
| B1 | binds | – |
| B2 | – | binds |
| B3 | – | binds |
| B4 | – | binds |
| B5 | – | binds |
